Test: label from the status in PepcDB records
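Note: failed if final PepcDB status was selected cloned or expressed and not failed if soluble or beyond.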

Sequence	protein production
MGAFNRRNKRVNNGNVTHLRPFRRNQLRNDNAYDPDEHDLEYVRPRRRGIYLLPNAFTTAALFAGFFAIVQAMNMRFDVAAIAIFAAMVLDGMDGRVARITNTQSAFGEQYDSLSDMTSFGVAPALVMYEWILHDLGKWGWIAAFVYCTCAALRLARFNANIGVVDKRFFQGLPSPAAAALVAGFVWLAIDNKLPVKELWMPWVAFGITLYAGLSMVSNAPFYSGKALDVRYRVPFGMMVLVLVLFVVVSSDPPVALFGLFVAYAISGYLLWAWRTLHGQRGGVDKSRAPGNGSGGN	failed
MIRGGRNNITSAPAFSKDAKKLLLCTANTVSVYSVATGLKITSLEDHTAPVTSVIVDPSSDETVSYCWTSSLDGKIRIWEFSAPKLLKIFDTHLPIHSLVMIPAQVSHSVIAYVSVEDYSSVSKDLFGQIRRYDLTQDPLHSGDTLKEMEEPKPIVLSPSGEFFGVCHNCSIHIWNVASEHLMPKETTLHHTELITVFAFHPNQRILAAGDVTGRVLIWKDNGIGEFTSVKTEDDTESCTTFNWHSAEVTVLNFSSDGALLYSGVKAGDFVVWELGTGKKQLLPKIGSPLLYFIFSSDSTLSSVICADNQIHLLKMPSMEILRTISGIKPPTPERHGFICYVKTRDICLTRTVSIDRSSGIAAFCTANHRVQLYNLLSDHDISEVQICDHHPDDDDQVRVLVTAVALSRNGSVMTTAEARFAASNFSEGIVSLKFWVFVPDSKTFSLSTVINQPHREAAITAIALNPARSMAVSISSAGDFKIWVCSSDKNLTPEDSNWICHGVGSYKRTPITAAVFSGDGSCLALAAKTVITIWHPLKNELLYVVGKANAPIMELSFTGGGFLIAASHGSTPHLSVWDLMTFCLSWSYRLYIEAIATEVDSPYFAVLTWLPESDRLVKSNEQIFRGKDGAILLFDGSGPKPVAIWTVMKARGGTLSFVEDGKKSQPLLAYVNRSHEYVLFDPYSDEKLETSAIDYEVFLAAISKKKKRSRKKALMSEKPWETMFCGSTLNFPPFPDLCASFFSSRMQKEVCERADRQPERHSS	failed
MFLRGNPDKTEPAFDARPLKTKEIARFGEGTPLPWLDRHALACVDASGDLRDVLKSTALAITLFCACTGPAMAYAPDETPIVIGRSTLLESKVLGQLRRINVHTPADYATSGKTYPVLFLLDGGEREDFPHIAGLAQLGELSWTYREMIVVGIEGIDRRHDLTHPSTVAQEQADFPTLGGSAAYRRFLSEELKPWVAARYRTNGESAIMGESLAGLFVIETLLKQPTLFDAYIAASPSLWWSDQALARGAPADIARWPALGSRKLYLTIGDEGSTMQEGVDKVMAAIGAAKPAGLTLVYDPMPHEQHSTIYHPAALKAFRTVWPGPRPD	failed
SLRHSPSLWELVEEHVPLRERREVKRILGEAAVDLSLELRAEVAMLRALLQEARSSQAPSSRPISDPSSLLAPPPLLKDLLRQELRQLLQGLRHKAICEGRDQAQAWVQYSPRVLHFALEEPRCDLPEQEIFQMRGGGPSSGHRDLSIIKDQLNVSNIDQVARHLRGLLEEECHTLEREILILQRCLEEEYLRPCHPSEAALEPTLAELKEQKKAMEQELQASVGPSCVSPNHRQRPLGSSTQGLRPPLPLCGVAPLQCCLPAPPLEPYLRPRGQSATHRWGRQLQCSPREGPASTPMSSAAPQAPA	not failed
MKLHLTNLYGMAGDSTVILAQNAVQKIASQLGFREVGIYFYNIASDSPSEMNKRLDGIMASISIGDILVFQSPTWNGFEFDRLLFDKLKDMQVKIICFIHDVVPLMFDSNYYLMKDYLYMYNLSDVLIVPSERMKTRLMEEGLTTKKILVQGMWDHPHDLSLYTPAFKKELFFAGSLERFPDLQNWSQDTPLRVFSNKGEASSSARSLSIEGWKKDEELLLELSKGGFGLVWGTHQNEGESNQYYTLNISHKVSTYLTAGIPVIVPSSLSTAKFIVDQGLGFMADSLEEVHEIVDKMNLQEYQEMTNRIKTFSYLLKEGYFTKKLLVDAIYHLGID	failed
MGHHHHHHSHMLVDNLYRVVSNQKDAAVIRVHLEVNASHEIFKGHFPEVPVLPGVCMVQCIKELIEESLLVKTQIDKGDMIKFLSMLNPVESNSIQAEISIKEKTETRIVFQATLKNEDRFLLKYSGSLVVLN	failed
MLSPCCHGQSMKTKITGKTISRIVPAEKVYRIHDTLQPGLSIRVLPSGHASYMVTWARNKAATLGRVGVITLEQARTDASRYLADAHAIGEPVAITEKRTGAAMPTLDHFLTHTFEPWAAEHHRDAKNGNRAIRHSFEALLSIPLSSIDTKRVEQIRTAWLRAGLAPSTANRNITRLRGVLSRALEWGVLQEHPLKVRKLKVDDRSRVRYLSIEEETALREALEARSNEMRDARDSANKWRLERHKEPLADLRAVRYADHLEPLVVLSINTGVRRGEAFNLTWADVDLKNKLITVEGDTSKSGQTRHVPLNREALDTLTKWKEQRGGNGFVFPGQHGKRLDNVKKSWSGLLKLAKVERFRWHDLRHTFASKLVMAGVPLNTVRELLGHTDIKMTLRYAHLAPGTKAAAVELI	failed
MNPADWIDTGAVPPRPLPAKVDAALAYLAEALGHPVYAHWTLTRIKRRYGSLADAKAAQPTVLKLLLTHDGAVEYWERGRLRTAPADQAPSPDAVLARLLHTHRRRFRSADASANAGAVPATAQTTGLVANPWLAAHSHADHAWLARTGRFAQPQAAANTLGAVDDAQALALFLRDRTGRSSHTLRAYGAELRRLMRWCGTHGFGPFSDLTRQQLLAYRHTLEHGSSGTANTTPPLSEATRTRALAVVASLYGYWYATGYLHANPAAGLSAGSRARSGFVPTRLIPSALLDACDAWLDANSAGDLLPALRQRAIWALYRYAGVRLAELAWSAETALPRLEAEAPGRWTLYVCGKGRKVRAIPLPAQCMVVLRAYRRARGLPPEPSAHETLPVIHGSKGEALQQTGLYREIKAIFAVVADGLQAREPAKAMLLRAASPHWLRHAYARTLVVDHQVPLPAAQALLGHASVQTTAAYAKTDLTQLRAFVDATFADDVP	failed
MYLTREEERILAGEEGEARAKALEVIVKVGEAVGAERLIPIKHAHVSGASYMTIGDAGLRFLARLAESGARFSVPTTVNPVSYDVEEPGAIPMTRLSPRIVKAQSEILKALEAMGADLILTCTPYYTEVPRRVGLREGDSVAWGESSAVAYANSVLGIHTNREGGPLALMAGIAGRTYFYGAHDPEWRKPRVAYRLETPKVLDETEAGVLGEVIATQHRDEHPPLLDAPLGGEAALKEFSAAVGSAGSLAMVHITGVTPGDPGDMIEEVVTMDYGDLARRMEDLAPGFEPDILYVGCPHASIEELRRLYRALSKAGERAGRRTVVSISRSLYLQALREGLVEKLKGLGVRFVRDSCLIVSPFSSGARGVRVATNSYKAYFYLSKKGVEVGLAPIEALPKLVS	failed
MADDIRILMCPPDHYDVDYVINPWMEGNIHKSSQERAVEQWKKLHQTIKECAIVDLVKPAKGWPDMVFTANAGLVLGENVVLSRFYHKERQGEEPYFKAWFEENGFTVYELPQDLPFEGAGDALFDREGRWLWAGYGFRSELDSHPYIAKWLDTEVVSLRLIDERFYHLDTCFCPLSGGYLLYYPPAFDAYSNRVIEMRIPPEKRIIVEELDAVNFACNAVNVNDIIIMNLVSRTLKEKLAEAGFKVRETPLTEFLKAGGAAKCLTLRVTEPILPDVHATVSIESRVIRMEGHLLDAGILNQALDLVVENSGSFRVLNFNLGVERNSTSSAEVRVSAPSHQIMEEIMTELIDLGAVPPPQELCDINTETVTQGGVAPDDFYVSTIYPTEVRVNCEWVQVTGQRMDAAIVVTSNPPSARCVLLRDLQVGDRVMVGVEGIRTIKKVESHEGGTRKENKEFAFMAAGVSSERRVELLVEQIAWEMRQIRDQGGKIVVTAGPVVIHTGGAQHLSHLVREGYVHALLGGNAIAVHDIEQATMGTSLGVDMQRGIPVRGGHRHHLKIINSVRRYGGIRQAVEAGFISKGVMYECVKNNIPYCLAGSIRDDGPLPDTEMNLVRAQSRYSELIQGADMILMLSSMLHSIGVGNMTPSGVKMVCVDINPAVVTKLSDRGSVESVGVVTDVGLFLSLLVRQLQQLTRPYSLAETL	failed
MTNAFSEELALEAAGLDAIFGKDFKAEETTTGHVRWSVPLSHNGVELELAFLLDSAYPLDSEPQVRVTCKEGLSLRAVRELEGHLQKVAAENRGSPSAYLLYTAAQDWIDTHDRREAAEAISATIASTRLSAREPDSAGTGTTFETKAESFTQLVEHETLEHATIDRTLGTPVTPETFAAWKQEFDKYLLENGILDIANNADIELDASQGGWKGNSRRKPTGRELFTMHREMFVDDFEESDQCESTASGACDTQGSELAEHVDASLFLS	failed
MKKKILIPVFASVMALSVSSIVNADEVNDSSQNKDDKTNTELNLGEYKEVKYKVAKIKDGVAIKIREEGQVQNIAYSGDEFTVLGTQGEWVKVKVEDGEGWLATRYVDISEGVGYTNADKVNLRKDKSESSEVIEELEKGSSLLVLEDNGDWLKVKDGETEGYVKSSYISDKAPVIEEPQVNPSIDQNVDSTNNNQQNNANTNQQNNNSNVPTANSNAVQAVLNLAYSKQGCPYVWGAEGPNTFDCSGFTQYVYRNAVGKNIPRTSKAQSKYGQTVSKANLQPGDLVFFTTNGSGSVSHVGIYVGGGNMIHSPSTGKTVSVTSINSSYYTARFVTAKRIL	failed
MIAPSRNLLLCNKGKTELNHSFSMLQAIVESTPYGLLVTNKHGHLLCYNQPYMDMWRIPPEVMVNARHQIIFGHYSSQLRDPQQFLHSTEVIYGTWLPESFDILEFLDGRAFERHTKATTLEGPNMVRVWSFKDITERRQAEAYKAQLAAMVESSDDAIIVKDLNAIITSWNAGAERIFGYQASEITGSSILALIPPERHEEEKGIMSLVKSGNRVDHFETMWWGKGKKPIDVSVTTSAVKDSDGNIVGISQIARDITKRKESQKRIEYLAHYDPLTGLPNRALLADRMKTAIENAKRYSFQLAVLFVDLDHFKLINDSLGHEIGDKLLKIVAERMRSRLRQTDTVSRLGGDEFIILLSRINAASDAACVAEKIIAALSQPYHLEQHELGLGASIGISIYPDSGKDTSSLLRSADEAMYSAKGQGRNRYHGP	failed
MRPLEDDEPTVVGPYRLLGRLGSGGMGRVYLGRSAGGRTVAVKIVHPHFALDEEFRARFRREVAAARRVGGAWTAPVLDADPEARVPWVATAYAAGPSLTAAVADGGPLPAHSVRALGAGLGEALAAVHELGLVHRDVKPSNVLLTLDGPLLIDFGIARATGGTSPTQSGGGTASLTSTGVSIGSPGYMSPEQILGKGVTGAADVFSLGAVLAYATTGQPPFPGDSSAALLYKVVHEEPNLDGLDDGELRELVASCLAKDPSARPAPAEVARRLAPEGAARLVTGGWLPGALVERVSRSAVRLLNLEAGESATGASGPVGFSRPSVTAGGDAGVATPASGVFGPPPVMPAPTSPSYPPSPPAPAPAPSPALLSVPGPRHPGPPDDDPGAGTGTTRPPGRLALSVAATSTQGAQGRGRRISCTVALAVAGALAAVTVGSVFVLDLLPGSGNDANNAGGNEASHDPPAATPGGLPARYLGTWEGQAAALDGKLPLGTFRITIKQAKAGQELGRLRQTDALGGVCVDVITLKKVTEKQLVAGSAGAEGNHDGCNPAPTTVTFTPVGDDLDYASKSEESGRPTARLSKVG	failed
AIAVSPLKTRCCSPSSQQQASEAREIEQPSTVWELDFYSRPVYGKDNKRIWELIVVDESFLLCHVESVPNDMINSAELRKRVERLLEQVTVKPKVVKFSRMPMFNMISLALKDLGFEVKPSRRTYRLYHVLRDREANIYSKMPGYRSENTLSTSYLYSTERLPDALRGEKFAFCTADYSFLYELQSSDTIPYCDIFNTGDSILLEKELPGIIVYSERADSLASWTAGAEVSFIKFREEELELVLECGINSHYRLAKIAEDHRLVEEAKTFEQMKWHMKGFHFYAIQSLKETSGTSHIKGLWLLNDFMEQ	not failed

From a protein production outcome set (Wang et al. 2014)
